Flow cytometry on LnCAP (% positive) data for one substance are collected here from patent US6887474.

The target of the test is prostate specific membrane antigen (PSMA) (UniProt Q04609). Briefly: flow cytometry on LnCAP prostate cancer cells. A general note: In flow cytometry, cells or beads pass a laser one at a time.
Sequence of UniProt Q04609 (Q04609 whole entry): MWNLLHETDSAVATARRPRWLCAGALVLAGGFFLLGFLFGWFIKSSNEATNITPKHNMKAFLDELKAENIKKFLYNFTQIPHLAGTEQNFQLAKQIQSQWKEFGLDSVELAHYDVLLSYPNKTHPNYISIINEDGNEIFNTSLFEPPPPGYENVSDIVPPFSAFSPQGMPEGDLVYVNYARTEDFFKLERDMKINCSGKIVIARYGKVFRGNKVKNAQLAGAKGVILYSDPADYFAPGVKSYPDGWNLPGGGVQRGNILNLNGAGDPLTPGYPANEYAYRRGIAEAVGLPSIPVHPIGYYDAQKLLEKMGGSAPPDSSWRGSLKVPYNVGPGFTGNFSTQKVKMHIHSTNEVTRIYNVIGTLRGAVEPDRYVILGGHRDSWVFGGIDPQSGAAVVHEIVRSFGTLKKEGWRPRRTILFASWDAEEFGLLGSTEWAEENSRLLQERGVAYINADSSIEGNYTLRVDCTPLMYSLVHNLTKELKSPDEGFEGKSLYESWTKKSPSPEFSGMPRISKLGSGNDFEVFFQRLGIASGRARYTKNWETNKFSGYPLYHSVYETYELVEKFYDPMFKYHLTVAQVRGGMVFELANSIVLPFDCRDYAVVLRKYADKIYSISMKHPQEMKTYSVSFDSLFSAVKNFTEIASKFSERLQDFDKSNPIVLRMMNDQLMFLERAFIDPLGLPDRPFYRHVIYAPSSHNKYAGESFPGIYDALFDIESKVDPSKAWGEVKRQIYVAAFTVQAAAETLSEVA

As to “antibody 7E11 (ATCC #FB 10494) recognizing prostate specific membrane antigen”, the flow cytometry on LnCAP (% positive) worked out at 58%.
